# Data: US20250066499A1 (SUNSHINE GUOJIAN PHARMACEUTICAL SHANGHAI, published 2025)
# T1: CD73-ND-K182A (human, UniProt P21589 27-317)
# T1 construct: Alanine mutant of CD73-ND
# T1 sequence: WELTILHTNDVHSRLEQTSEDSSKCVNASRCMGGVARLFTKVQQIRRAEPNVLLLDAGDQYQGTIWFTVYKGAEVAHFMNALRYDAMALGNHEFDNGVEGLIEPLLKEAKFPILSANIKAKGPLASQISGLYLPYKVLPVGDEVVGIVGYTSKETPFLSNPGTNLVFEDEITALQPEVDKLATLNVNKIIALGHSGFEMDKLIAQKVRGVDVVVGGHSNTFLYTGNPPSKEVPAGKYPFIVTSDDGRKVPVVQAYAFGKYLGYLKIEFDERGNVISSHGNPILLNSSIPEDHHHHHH
# T2: CD73-ND-E143A (human, UniProt P21589 27-317)
# T2 construct: Alanine mutant of CD73-ND
# T2 sequence: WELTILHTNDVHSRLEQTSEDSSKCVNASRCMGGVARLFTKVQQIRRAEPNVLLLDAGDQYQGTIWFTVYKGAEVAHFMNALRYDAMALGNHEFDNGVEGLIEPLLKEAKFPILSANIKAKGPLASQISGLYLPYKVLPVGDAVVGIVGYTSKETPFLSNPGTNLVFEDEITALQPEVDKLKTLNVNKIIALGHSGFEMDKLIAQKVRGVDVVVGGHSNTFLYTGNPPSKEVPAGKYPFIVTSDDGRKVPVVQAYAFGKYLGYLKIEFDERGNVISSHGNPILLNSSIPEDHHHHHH
# T3: CD73-ND-N185A (human, UniProt P21589 27-317)
# T3 construct: Alanine mutant of CD73-ND
# T3 sequence: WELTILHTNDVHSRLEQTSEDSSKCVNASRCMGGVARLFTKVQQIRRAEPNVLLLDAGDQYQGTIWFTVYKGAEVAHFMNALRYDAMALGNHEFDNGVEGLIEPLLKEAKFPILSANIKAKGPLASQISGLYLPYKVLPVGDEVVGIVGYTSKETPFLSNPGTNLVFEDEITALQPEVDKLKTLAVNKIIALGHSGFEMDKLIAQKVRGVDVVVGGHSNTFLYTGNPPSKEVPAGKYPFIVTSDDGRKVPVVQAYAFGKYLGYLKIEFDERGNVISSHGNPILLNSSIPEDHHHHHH
# T4: CD73-ND-V144A (human, UniProt P21589 27-317)
# T4 construct: Alanine mutant of CD73-ND
# T4 sequence: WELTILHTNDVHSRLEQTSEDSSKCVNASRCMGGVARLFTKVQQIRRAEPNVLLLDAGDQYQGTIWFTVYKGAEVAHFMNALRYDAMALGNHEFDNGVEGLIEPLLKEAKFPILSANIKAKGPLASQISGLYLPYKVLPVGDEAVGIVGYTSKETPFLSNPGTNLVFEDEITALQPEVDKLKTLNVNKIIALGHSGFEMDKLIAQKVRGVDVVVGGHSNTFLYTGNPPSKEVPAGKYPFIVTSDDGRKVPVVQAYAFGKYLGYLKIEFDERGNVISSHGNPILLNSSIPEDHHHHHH
# T5: CD73-ND-K180A (human, UniProt P21589 27-317)
# T5 construct: Alanine mutant of CD73-ND
# T5 sequence: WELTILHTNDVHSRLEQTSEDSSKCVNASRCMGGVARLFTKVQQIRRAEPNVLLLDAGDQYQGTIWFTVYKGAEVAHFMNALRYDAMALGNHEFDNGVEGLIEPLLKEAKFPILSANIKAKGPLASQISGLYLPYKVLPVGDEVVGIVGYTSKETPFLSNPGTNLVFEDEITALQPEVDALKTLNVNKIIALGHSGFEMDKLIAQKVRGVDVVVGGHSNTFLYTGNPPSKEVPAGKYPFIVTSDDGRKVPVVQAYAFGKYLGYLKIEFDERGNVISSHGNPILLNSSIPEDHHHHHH
# T6: CD73-ND-L181A (human, UniProt P21589 27-317)
# T6 construct: Alanine mutant of CD73-ND
# T6 sequence: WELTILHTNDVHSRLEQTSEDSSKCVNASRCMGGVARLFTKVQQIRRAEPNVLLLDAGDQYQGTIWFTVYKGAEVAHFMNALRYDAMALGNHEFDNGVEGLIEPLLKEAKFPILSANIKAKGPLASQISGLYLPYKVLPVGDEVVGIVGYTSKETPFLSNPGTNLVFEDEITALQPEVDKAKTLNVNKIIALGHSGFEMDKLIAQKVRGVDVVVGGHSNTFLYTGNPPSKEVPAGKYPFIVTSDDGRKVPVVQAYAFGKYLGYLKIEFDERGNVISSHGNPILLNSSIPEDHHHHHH
# Legend:
# Assay in all cases: ELISA; decline multiple of Top against CD73-ND
# CD73-ND-K182A = target: T1, CD73-ND-K182A
# Protocol: (§1) The ELISA plates were coated with SA protein diluted to 1.5 μg/mL in coating buffer (50 mM carbonate coating buffer, pH 9.6) and incubated overnight at 4° C. The supernatant was discarded, and the plates were washed three times with PBST. Then, 5% skimmed milk powder prepared with PBS was added for blocking and the plates were incubated for 2 h at 37° C. After washing the plates once with PBST, CD73-biotin protein (prepared by biotinylating CD73-His protein according to the EZ-Link NHS-Biotin Reagent instructions) was diluted to 0.5 μg/mL and added at 100 μL/well for incubation at room temperature for 1 h. The plates were washed three times with PBST, and the prepared murine-derived monoclonal antibodies against human CD73 were serially diluted with 1% BSA buffer prepared with PBST and added to the ELISA plates at 100 μl/well. The plates were incubated at 37° C. for 1 h. After washing the plates three times with PBST, HRP-labeled goat anti-mouse IgG secondary antibody was added and the plates were incubated for 30 min at 37° C. After washing the plates three times with PBST, the residual droplets were patted dry on absorbent paper as much as possible. Then, 100 μl of TMB color developing solution was added to each well, and the plates were incubated in the dark at room temperature for 5 min for color development. Subsequently, 50 μl of 2M H₂SO₄ stop solution was added to each well to terminate the substrate reaction. The OD values were read at 450 nm using a multimode microplate reader to analyze the binding ability of the tested antibodies to the target antigen human CD73-His.
# (§2) Referring to the experimental method in Example 3, the affinity of 48A11-HuV33 for various mutant proteins of CD73-ND was determined. The SA protein was diluted to 1 μg/mL for coating the ELISA plates, and the biotinylated CD73 protein (CD73-biotin) was used at a concentration of 0.1 μg/mL.
# CD73-ND-E143A = target: T2, CD73-ND-E143A
# Protocol: as §1, §2
# CD73-ND-N185A = target: T3, CD73-ND-N185A
# Protocol: as §1, §2
# CD73-ND-V144A = target: T4, CD73-ND-V144A
# Protocol: as §1, §2
# CD73-ND-K180A = target: T5, CD73-ND-K180A
# Protocol: as §1, §2
# CD73-ND-L181A = target: T6, CD73-ND-L181A
# Protocol: as §1, §2
binder,measurement,setting,value
"48A11-HuV33 (antibody, human IgG4, V domains shown, Humanized) VH: QVQLVQSGAEVKKPGASVKVSCKASGYTFTSYWMHWVRQAPGQGLEWIGEINPSIGRTNYNEKFKSRVTLTRDTSTSTAYMELSSLRSEDTAVYYCARRVYGTMDYWGQGTLVTVSS VL: DIQMTQSPSSLSASVGDRVTITCKASQDINSYLSWFQQKPGKSPKLLIYRANIWVDGVPSRFSGSGSGQDYTFTISSLQPEDIATYYCLQYDELYTFGQGTKVEIK",Ratio(Top),CD73-ND-K182A,1 fold
same,Ratio(Top),CD73-ND-E143A,1.1 fold
same,Ratio(Top),CD73-ND-N185A,1 fold
same,Ratio(Top),CD73-ND-V144A,1.2 fold
same,Ratio(Top),CD73-ND-K180A,1.1 fold
same,Ratio(Top),CD73-ND-L181A,1.9 fold
